Reference: patent US20140087995A1 (published 2014)
Numbered stars: 1 amine (or outer) side, 2 acyl side, 3 side chain; on linkers, the order of the positions; unused ones are H or OH. Bridge positions count the residues as written; N and C are the ends. Side chains are listed from the residue outwards. Ends that are not written are not given here. * marks the point of attachment. C20 diacid = O=C(O)CCCCCCCCCCCCCCCCCCC(=O)*; C18 diacid = O=C(O)CCCCCCCCCCCCCCCCC(=O)*; C16 diacid = O=C(O)CCCCCCCCCCCCCCC(=O)*; γGlu = O=C(O)[C@H](CCC(=O)[*:2])N[*:1]; C14 diacid = O=C(O)CCCCCCCCCCCCC(=O)*

T1: human calcitonin receptor (human, UniProt P30988 25-474)
T1 construct: whole, on cells; Assay used cell membranes, not intact cells; also called hCTR; hCT
T1 sequence (looked up): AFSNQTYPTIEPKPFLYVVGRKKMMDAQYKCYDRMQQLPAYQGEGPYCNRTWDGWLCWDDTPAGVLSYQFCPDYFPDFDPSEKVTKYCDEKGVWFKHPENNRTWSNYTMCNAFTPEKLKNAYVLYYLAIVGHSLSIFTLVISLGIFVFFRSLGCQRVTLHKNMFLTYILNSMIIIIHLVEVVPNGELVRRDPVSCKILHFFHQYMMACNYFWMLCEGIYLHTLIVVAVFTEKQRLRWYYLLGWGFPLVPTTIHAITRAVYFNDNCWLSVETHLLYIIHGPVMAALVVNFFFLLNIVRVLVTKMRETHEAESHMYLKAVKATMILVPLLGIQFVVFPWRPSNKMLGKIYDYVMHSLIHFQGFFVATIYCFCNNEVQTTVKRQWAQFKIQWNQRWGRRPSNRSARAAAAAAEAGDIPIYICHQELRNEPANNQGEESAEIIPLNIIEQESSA

T2: human amylin receptor (amylin 3(a) receptor: human calcitonin receptor with RAMP-3) (human, UniProt P30988 25-474; O60896 24-148)
T2 construct: whole, on cells; Assay used cell membranes of the Amylin 3(a)/CRE-luc BHK cells, not intact cells; also called hAmylin-R; hAmylinR
T2 sequence (looked up) 1: T1 sequence (looked up)
T2 sequence (looked up) 2: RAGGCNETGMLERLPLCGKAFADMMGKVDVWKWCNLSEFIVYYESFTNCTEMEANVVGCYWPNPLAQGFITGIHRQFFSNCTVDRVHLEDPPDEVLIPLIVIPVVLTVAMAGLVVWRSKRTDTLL

B1: N^ε1-[(4S)-4-carboxy-4-(13-carboxytridecanoylamino)butanoyl]-[Arg17,Pro21,Pro27,His34]-h-amylin (peptide)
peptide: K([γGlu-C14 diacid])CNTATCATQRLANFLRHSSPNFGAIPSSTNVGHNTY-NH2
modifications: disulfide 2-7; N-terminus assumed
SMILES: CC[C@H](C)[C@H](NC(=O)[C@H](C)NC(=O)CNC(=O)[C@H](Cc1ccccc1)NC(=O)[C@H](CC(N)=O)NC(=O)[C@@H]1CCCN1C(=O)[C@H](CO)NC(=O)[C@H](CO)NC(=O)[C@H](Cc1c[nH]cn1)NC(=O)[C@H](CCCNC(=N)N)NC(=O)[C@H](CC(C)C)NC(=O)[C@H](Cc1ccccc1)NC(=O)[C@H](CC(N)=O)NC(=O)[C@H](C)NC(=O)[C@H](CC(C)C)NC(=O)[C@H](CCCNC(=N)N)NC(=O)[C@H](CCC(N)=O)NC(=O)[C@@H](NC(=O)[C@H](C)NC(=O)[C@@H]1CSSC[C@H](NC(=O)[C@@H](N)CCCCNC(=O)CC[C@H](NC(=O)CCCCCCCCCCCCC(=O)O)C(=O)O)C(=O)N[C@@H](CC(N)=O)C(=O)N[C@@H]([C@@H](C)O)C(=O)N[C@@H](C)C(=O)N[C@@H]([C@@H](C)O)C(=O)N1)[C@@H](C)O)C(=O)N1CCC[C@H]1C(=O)N[C@@H](CO)C(=O)N[C@@H](CO)C(=O)N[C@H](C(=O)N[C@@H](CC(N)=O)C(=O)N[C@H](C(=O)NCC(=O)N[C@@H](Cc1c[nH]cn1)C(=O)N[C@@H](CC(N)=O)C(=O)N[C@H](C(=O)N[C@@H](Cc1ccc(O)cc1)C(N)=O)[C@@H](C)O)C(C)C)[C@@H](C)O
B2: N^ε1-[(4S)-4-carboxy-4-(19-carboxynonadecanoylamino)butanoyl]-[Ala14,Arg17,Pro21,Pro27,Pro34]-h-amylin (peptide)
peptide: K([γGlu-C20 diacid])CNTATCATQRLAAFLRHSSPNFGAIPSSTNVGPNTY-NH2
modifications: disulfide 2-7; N-terminus assumed
SMILES: CC[C@H](C)[C@H](NC(=O)[C@H](C)NC(=O)CNC(=O)[C@H](Cc1ccccc1)NC(=O)[C@H](CC(N)=O)NC(=O)[C@@H]1CCCN1C(=O)[C@H](CO)NC(=O)[C@H](CO)NC(=O)[C@H](Cc1c[nH]cn1)NC(=O)[C@H](CCCNC(=N)N)NC(=O)[C@H](CC(C)C)NC(=O)[C@H](Cc1ccccc1)NC(=O)[C@H](C)NC(=O)[C@H](C)NC(=O)[C@H](CC(C)C)NC(=O)[C@H](CCCNC(=N)N)NC(=O)[C@H](CCC(N)=O)NC(=O)[C@@H](NC(=O)[C@H](C)NC(=O)[C@@H]1CSSC[C@H](NC(=O)[C@@H](N)CCCCNC(=O)CC[C@H](NC(=O)CCCCCCCCCCCCCCCCCCC(=O)O)C(=O)O)C(=O)N[C@@H](CC(N)=O)C(=O)N[C@@H]([C@@H](C)O)C(=O)N[C@@H](C)C(=O)N[C@@H]([C@@H](C)O)C(=O)N1)[C@@H](C)O)C(=O)N1CCC[C@H]1C(=O)N[C@@H](CO)C(=O)N[C@@H](CO)C(=O)N[C@H](C(=O)N[C@@H](CC(N)=O)C(=O)N[C@H](C(=O)NCC(=O)N1CCC[C@H]1C(=O)N[C@@H](CC(N)=O)C(=O)N[C@H](C(=O)N[C@@H](Cc1ccc(O)cc1)C(N)=O)[C@@H](C)O)C(C)C)[C@@H](C)O
notes: also called compound 94
B3: N^ε1-[(4S)-4-carboxy-4-(17-carboxyheptadecanoylamino)butanoyl]-[Arg17,Pro21,Pro27,His34]-h-amylin (peptide)
peptide: K([γGlu-C18 diacid])CNTATCATQRLANFLRHSSPNFGAIPSSTNVGHNTY-NH2
modifications: disulfide 2-7; N-terminus assumed
SMILES: CC[C@H](C)[C@H](NC(=O)[C@H](C)NC(=O)CNC(=O)[C@H](Cc1ccccc1)NC(=O)[C@H](CC(N)=O)NC(=O)[C@@H]1CCCN1C(=O)[C@H](CO)NC(=O)[C@H](CO)NC(=O)[C@H](Cc1c[nH]cn1)NC(=O)[C@H](CCCNC(=N)N)NC(=O)[C@H](CC(C)C)NC(=O)[C@H](Cc1ccccc1)NC(=O)[C@H](CC(N)=O)NC(=O)[C@H](C)NC(=O)[C@H](CC(C)C)NC(=O)[C@H](CCCNC(=N)N)NC(=O)[C@H](CCC(N)=O)NC(=O)[C@@H](NC(=O)[C@H](C)NC(=O)[C@@H]1CSSC[C@H](NC(=O)[C@@H](N)CCCCNC(=O)CC[C@H](NC(=O)CCCCCCCCCCCCCCCCC(=O)O)C(=O)O)C(=O)N[C@@H](CC(N)=O)C(=O)N[C@@H]([C@@H](C)O)C(=O)N[C@@H](C)C(=O)N[C@@H]([C@@H](C)O)C(=O)N1)[C@@H](C)O)C(=O)N1CCC[C@H]1C(=O)N[C@@H](CO)C(=O)N[C@@H](CO)C(=O)N[C@H](C(=O)N[C@@H](CC(N)=O)C(=O)N[C@H](C(=O)NCC(=O)N[C@@H](Cc1c[nH]cn1)C(=O)N[C@@H](CC(N)=O)C(=O)N[C@H](C(=O)N[C@@H](Cc1ccc(O)cc1)C(N)=O)[C@@H](C)O)C(C)C)[C@@H](C)O
B4: N^ε1-[(4S)-4-carboxy-4-(15-carboxypentadecanoylamino)butanoyl]-[Arg17,Pro21,Pro27,His34]-h-amylin (peptide)
peptide: K([γGlu-C16 diacid])CNTATCATQRLANFLRHSSPNFGAIPSSTNVGHNTY-NH2
modifications: disulfide 2-7; N-terminus assumed
SMILES: CC[C@H](C)[C@H](NC(=O)[C@H](C)NC(=O)CNC(=O)[C@H](Cc1ccccc1)NC(=O)[C@H](CC(N)=O)NC(=O)[C@@H]1CCCN1C(=O)[C@H](CO)NC(=O)[C@H](CO)NC(=O)[C@H](Cc1c[nH]cn1)NC(=O)[C@H](CCCNC(=N)N)NC(=O)[C@H](CC(C)C)NC(=O)[C@H](Cc1ccccc1)NC(=O)[C@H](CC(N)=O)NC(=O)[C@H](C)NC(=O)[C@H](CC(C)C)NC(=O)[C@H](CCCNC(=N)N)NC(=O)[C@H](CCC(N)=O)NC(=O)[C@@H](NC(=O)[C@H](C)NC(=O)[C@@H]1CSSC[C@H](NC(=O)[C@@H](N)CCCCNC(=O)CC[C@H](NC(=O)CCCCCCCCCCCCCCC(=O)O)C(=O)O)C(=O)N[C@@H](CC(N)=O)C(=O)N[C@@H]([C@@H](C)O)C(=O)N[C@@H](C)C(=O)N[C@@H]([C@@H](C)O)C(=O)N1)[C@@H](C)O)C(=O)N1CCC[C@H]1C(=O)N[C@@H](CO)C(=O)N[C@@H](CO)C(=O)N[C@H](C(=O)N[C@@H](CC(N)=O)C(=O)N[C@H](C(=O)NCC(=O)N[C@@H](Cc1c[nH]cn1)C(=O)N[C@@H](CC(N)=O)C(=O)N[C@H](C(=O)N[C@@H](Cc1ccc(O)cc1)C(N)=O)[C@@H](C)O)C(C)C)[C@@H](C)O
B5: N^ε1-[(4S)-4-carboxy-4-(19-carboxynonadecanoylamino)butanoyl]-[Ala14,Arg17,Pro21,Pro27,His34]-h-amylin (peptide)
peptide: K([γGlu-C20 diacid])CNTATCATQRLAAFLRHSSPNFGAIPSSTNVGHNTY-NH2
modifications: disulfide 2-7; N-terminus assumed
SMILES: CC[C@H](C)[C@H](NC(=O)[C@H](C)NC(=O)CNC(=O)[C@H](Cc1ccccc1)NC(=O)[C@H](CC(N)=O)NC(=O)[C@@H]1CCCN1C(=O)[C@H](CO)NC(=O)[C@H](CO)NC(=O)[C@H](Cc1c[nH]cn1)NC(=O)[C@H](CCCNC(=N)N)NC(=O)[C@H](CC(C)C)NC(=O)[C@H](Cc1ccccc1)NC(=O)[C@H](C)NC(=O)[C@H](C)NC(=O)[C@H](CC(C)C)NC(=O)[C@H](CCCNC(=N)N)NC(=O)[C@H](CCC(N)=O)NC(=O)[C@@H](NC(=O)[C@H](C)NC(=O)[C@@H]1CSSC[C@H](NC(=O)[C@@H](N)CCCCNC(=O)CC[C@H](NC(=O)CCCCCCCCCCCCCCCCCCC(=O)O)C(=O)O)C(=O)N[C@@H](CC(N)=O)C(=O)N[C@@H]([C@@H](C)O)C(=O)N[C@@H](C)C(=O)N[C@@H]([C@@H](C)O)C(=O)N1)[C@@H](C)O)C(=O)N1CCC[C@H]1C(=O)N[C@@H](CO)C(=O)N[C@@H](CO)C(=O)N[C@H](C(=O)N[C@@H](CC(N)=O)C(=O)N[C@H](C(=O)NCC(=O)N[C@@H](Cc1c[nH]cn1)C(=O)N[C@@H](CC(N)=O)C(=O)N[C@H](C(=O)N[C@@H](Cc1ccc(O)cc1)C(N)=O)[C@@H](C)O)C(C)C)[C@@H](C)O
notes: also called compound 93

These binders were tested against T1, human calcitonin receptor (assay: ratio IC50 hCTR / IC50 hAmylin-R (reference: human amylin receptor), SPA competition assays).
Summary of the method: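 IC₅₀ values were derived by one-site competition analysis of SPA counts. Cell membranes (35 ng/μL) with SPA beads were incubated with test compounds for 120 min at 25° C in Hepes buffer, pH 7.4, containing CaCl2, MgCl₂, OA and Tween20.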

Binder	Ratio hCT/hAmylin binding
B1	23.5
B2	46.3
B3	59.4
B4	18.5
B5	101

These binders were tested against T1, human calcitonin receptor (assay: SPA competition with 125I-calcitonin on membranes of BHK cells with human calcitonin receptor (Assay VII)).
Summary of the method: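 BHK hCTR membranes 35 ng/μL + SPA beads 0.05 mg/well; buffer 50 mM Hepes pH 7.4, 1 mM CaCl2, 5 mM MgCl₂, 0.1% OA, 0.02% Tween20. 120 min, 25° C., shaking. Scintillation count; IC50 by one-site binding competition.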

Binder	IC50 [nM]
B1	24.3
B2	6.86
B3	22.7
B4	10.8
B5	17.8

The binders below were run against T2, human amylin receptor (amylin 3(a) …) (assay: SPA competition with 125I-rat amylin on membranes of BHK cells with human calcitonin receptor and RAMP-3 (Assay V)).
Summary of the method: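 Cell membranes were prepared by homogenisation in Na-HEPES/EDTA buffer, pH 7.4, and stored at −80° C. They were then coupled to SPA beads at 35 ng/μL final and exposed to compounds in assay buffer containing CaCl2, MgCl₂, OA and Tween20. After 120 min at 25° C, plates were counted and IC₅₀ derived.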

Binder	IC50 [nM]
B1	1.04
B2	0.148
B3	0.382
B4	0.58
B5	0.176
